In US20240245796A1 (PROFOUNDBIO US, published 2024):

Experiments:
[1] = molecular target: T1, cynomolgus monkey FOLR1 extracellular domain linked to His tag (cynomolgus monkey, UniProt A0A2K5U044 25-233); assay: BLI, Ag 31.3 nM over Ab on anti-hIgG Fc tip
T1 construct: extracellular domain; Antigen in solution in BLI; It may be the same product as m14; also called Cyno-Ag; not shown: His tag

[2] = molecular target: T2, human FOLR1 extracellular domain linked to His tag (human, UniProt P15328 25-233, limits assumed); assay: BLI, Ag 31.3 nM over Ab on anti-hIgG Fc tip
T2 construct: extracellular domain; It may be the same product as m13; also called Hu-FRα; Hu-Ag; not shown: His tag

[3] = molecular target: T3, rat FOLR1 extracellular domain linked to His tag (rat); assay: BLI, global 1:1 fit (250 nM row); all responses below quantification
T3 construct: extracellular domain; Antigen in solution in BLI; also called Rat-Ag

[4] = molecular target: T4, mouse FOLR1 extracellular domain linked to His tag (mouse, UniProt P35846 25-232, limits assumed); assay: BLI, global 1:1 fit (500 nM row); only the 500 nM response quantifiable
T4 construct: extracellular domain; Antigen in solution in BLI; also called Mouse-Ag; not shown: His tag

[5] = molecular target: T3, rat FOLR1 extracellular domain linked …; assay: BLI, global 1:1 fit (15.6 nM row); all responses below quantification
[6] = molecular target: T4, mouse FOLR1 extracellular domain linked …; assay: BLI, global 1:1 fit (31.3 nM row); only the 500 nM response quantifiable
[7] = molecular target: T1, cynomolgus monkey FOLR1 extracellular …; assay: BLI, global 1:1 fit (250 nM row)
[8] = molecular target: T2, human FOLR1 extracellular domain linked …; assay: BLI, global 1:1 fit (250 nM row)
[9] = molecular target: T5, human FOLR2 extracellular domain linked to His tag (human, UniProt P14207 17-230, limits assumed); assay: BLI, global 1:1 fit (7.82 nM row)
T5 construct: extracellular domain; Antigen in solution in BLI; also called Hu-FRb; not shown: His tag

[10] = molecular target: T2, human FOLR1 extracellular domain linked …; assay: BLI, global 1:1 fit (7.82 nM row)
[11] = molecular target: T5, human FOLR2 extracellular domain linked …; assay: BLI, Ag 500 nM over Ab on anti-hIgG Fc tip
[12] = molecular target: T2, human FOLR1 extracellular domain linked …; assay: BLI, Ag 500 nM over Ab on anti-hIgG Fc tip
[13] = molecular target: T5, human FOLR2 extracellular domain linked …; assay: BLI, global 1:1 fit (125 nM row)
[14] = molecular target: T5, human FOLR2 extracellular domain linked …; assay: BLI, Ag 250 nM over Ab on anti-hIgG Fc tip
[15] = molecular target: T2, human FOLR1 extracellular domain linked …; assay: BLI, Ag 250 nM over Ab on anti-hIgG Fc tip
[16] = molecular target: T3, rat FOLR1 extracellular domain linked …; assay: BLI, global 1:1 fit (125 nM row); all responses below quantification
[17] = molecular target: T6, human FOLR3 extracellular domain linked to His tag (human, UniProt P41439 23-245, limits assumed); assay: BLI, global 1:1 fit (7.82 nM row); all responses below quantification
T6 construct: extracellular domain; Antigen in solution in BLI; also called Hu-FRg; not shown: His tag

[18] = molecular target: T5, human FOLR2 extracellular domain linked …; assay: BLI, Ag 7.82 nM; * = below range of quantification
[19] = molecular target: T6, human FOLR3 extracellular domain linked …; assay: BLI, Ag 7.82 nM; * = below range of quantification
[20] = molecular target: T1, cynomolgus monkey FOLR1 extracellular …; assay: BLI, Ag 7.82 nM over Ab on anti-hIgG Fc tip
[21] = molecular target: T2, human FOLR1 extracellular domain linked …; assay: BLI, Ag 7.82 nM over Ab on anti-hIgG Fc tip
[22] = molecular target: T1, cynomolgus monkey FOLR1 extracellular …; assay: BLI, Ag 500 nM over Ab on anti-hIgG Fc tip
[23] = molecular target: T4, mouse FOLR1 extracellular domain linked …; assay: BLI, Ag 500 nM over Ab on anti-hIgG Fc tip
[24] = molecular target: T2, human FOLR1 extracellular domain linked …; assay: BLI, Ag 500 nM over Ab on anti-hIgG Fc tip; remark: listed apart in the source

T2 sequence (P15328 25-233 limits assumed): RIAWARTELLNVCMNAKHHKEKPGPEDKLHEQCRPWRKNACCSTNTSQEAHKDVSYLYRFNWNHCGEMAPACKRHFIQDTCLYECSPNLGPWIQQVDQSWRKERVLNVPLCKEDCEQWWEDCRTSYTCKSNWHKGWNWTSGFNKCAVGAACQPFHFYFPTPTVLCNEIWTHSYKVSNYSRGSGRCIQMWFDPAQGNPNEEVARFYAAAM
T6 sequence (P41439 23-245 limits assumed): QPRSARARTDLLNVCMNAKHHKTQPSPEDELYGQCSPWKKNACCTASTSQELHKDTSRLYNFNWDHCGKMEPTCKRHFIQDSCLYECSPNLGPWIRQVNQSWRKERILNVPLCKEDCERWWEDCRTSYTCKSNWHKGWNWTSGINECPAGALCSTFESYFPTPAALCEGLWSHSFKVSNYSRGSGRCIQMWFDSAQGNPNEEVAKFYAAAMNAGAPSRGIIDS
T5 sequence (P14207 17-230 limits assumed): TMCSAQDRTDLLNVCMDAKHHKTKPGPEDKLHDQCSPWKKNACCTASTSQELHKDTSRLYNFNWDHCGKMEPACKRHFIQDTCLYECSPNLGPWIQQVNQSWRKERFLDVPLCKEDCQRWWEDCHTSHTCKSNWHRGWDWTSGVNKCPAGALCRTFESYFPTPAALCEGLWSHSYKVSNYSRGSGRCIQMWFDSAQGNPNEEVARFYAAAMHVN
T4 sequence (P35846 25-232 limits assumed): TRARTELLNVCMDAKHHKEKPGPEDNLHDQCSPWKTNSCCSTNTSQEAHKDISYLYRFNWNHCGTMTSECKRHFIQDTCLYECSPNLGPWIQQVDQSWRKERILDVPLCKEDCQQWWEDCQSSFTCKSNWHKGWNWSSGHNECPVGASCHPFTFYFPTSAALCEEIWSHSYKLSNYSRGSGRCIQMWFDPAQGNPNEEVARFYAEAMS
T1 sequence (A0A2K5U044 entry or part of it): as the sequence (P15328 25-233 limits assumed) above, with I2T, W4R, R37K, A146P, H171Y counted along it

B1: F131 (antibody, V domains shown)
VH: EVQLLESGGGVVQPGRSLRLSCAASGFTFSSYGMHWVRQAPGKGLEWVAVISYDGSNKYYADSVKGRFTISRANSKNTLYLQMNSLRAEDTAVYYCARPRAYYGAYGSSFDYWGQGTQVTVSS
VL: EIVMTQSPSSVSASVGDRVAITCRASQGISSWLAWYQQKPGKAPKLLIYAASSLQSGVPSRFSGSGSGTDFTLTISSLQPEDFATYYCQQSYSTPLTFGGGTKVDIK
notes: also called clone F131; F131 mAb
Response [1]: 0.084
Response [2]: 0.0869
koff [3]: 1.03 s⁻¹
kon [3]: 5490 M⁻¹ s⁻¹
koff [4]: 0.301 s⁻¹
kon [4]: 102000 M⁻¹ s⁻¹
koff [5]: 1.03 s⁻¹
kon [5]: 5490 M⁻¹ s⁻¹
Kd [6]: 2960 nM
koff [6]: 0.301 s⁻¹
kon [6]: 102000 M⁻¹ s⁻¹
Kd [7]: 8.15 nM
koff [7]: 0.00157 s⁻¹
kon [7]: 193000 M⁻¹ s⁻¹
Kd [8]: 1.53 nM
koff [8]: 0.000338 s⁻¹
kon [8]: 221000 M⁻¹ s⁻¹
Kd [9]: 142 nM
koff [9]: 0.0784 s⁻¹
kon [9]: 552000 M⁻¹ s⁻¹
Kd [10]: 5.3 nM
koff [10]: 0.0012 s⁻¹
kon [10]: 226000 M⁻¹ s⁻¹
Response [11]: 0.037
Response [12]: 0.192
Kd [13]: 142 nM
koff [13]: 0.0784 s⁻¹
kon [13]: 552000 M⁻¹ s⁻¹
Response [14]: 0.0207
Response [15]: 0.178
koff [16]: 1.03 s⁻¹
kon [16]: 5490 M⁻¹ s⁻¹
koff [17]: 0.217 s⁻¹
kon [17]: 1660 M⁻¹ s⁻¹
Response [18]: 0.0011
Response [19]: 0.00103
Response [20]: 0.0537
Response [21]: 0.04
Response [22]: 0.219
Response [23]: 0.0167
Response [24]: 0.181

B2: F131-LD038 (antibody, V domains shown)
VH: EVQLLESGGGVVQPGRSLRLSCAASGFTFSSYGMHWVRQAPGKGLEWVAVISYDGSNKYYADSVKGRFTISRANSKNTLYLQMNSLRAEDTAVYYCARPRAYYGAYGSSFDYWGQGTQVTVSS
VL: EIVMTQSPSSVSASVGDRVAITCRASQGISSWLAWYQQKPGKAPKLLIYAASSLQSGVPSRFSGSGSGTDFTLTISSLQPEDFATYYCQQSYSTPLTFGGGTKVDIK
modifications: drug-linker LD038 (PB038, maleimide-PEG unit-Val-Cit-PAB-exatecan) on cysteines freed by TCEP reduction; positions not given
notes: Antibody-drug conjugate of F131 (IgG1) with LD038; also called anti-huFOLR-1 conjugate F131-LD038; F131-038
Response [1]: 0.0702
Response [2]: 0.0866
koff [3]: 0.224 s⁻¹
Kd [4]: 2870 nM
koff [4]: 0.266 s⁻¹
kon [4]: 92600 M⁻¹ s⁻¹
koff [5]: 0.224 s⁻¹
kon [5]: 2.64e+06 M⁻¹ s⁻¹
Kd [6]: 2870 nM
koff [6]: 0.266 s⁻¹
kon [6]: 92600 M⁻¹ s⁻¹
Kd [7]: 8.82 nM
koff [7]: 0.0016 s⁻¹
kon [7]: 181000 M⁻¹ s⁻¹
Kd [8]: 4.8 nM
koff [8]: 0.00107 s⁻¹
kon [8]: 224000 M⁻¹ s⁻¹
Kd [9]: 84.4 nM
koff [9]: 0.0813 s⁻¹
kon [9]: 963000 M⁻¹ s⁻¹
Kd [10]: 4.79 nM
koff [10]: 0.00121 s⁻¹
kon [10]: 252000 M⁻¹ s⁻¹
Response [11]: 0.0427
Response [12]: 0.222
Kd [13]: 84.4 nM
koff [13]: 0.0813 s⁻¹
kon [13]: 963000 M⁻¹ s⁻¹
Response [14]: 0.0243
Response [15]: 0.201
koff [16]: 0.224 s⁻¹
kon [16]: 2.64e+06 M⁻¹ s⁻¹
koff [17]: 0.233 s⁻¹
Response [18]: 0.002
Response [19]: 0.0004
Response [20]: 0.0225
Response [21]: 0.0342
Response [22]: 0.186
Response [23]: 0.0125
Response [24]: 0.205
